Measurements taken from article doi:10.1101/2023.06.28.546941 (bioRxiv, 2023).

B1: MBP-fused Tin homeodomain (amino acids 301-360) (domain or fragment, Drosophila, UniProt P22711 301-360, looked up)
chain: KRKPRVLFSQAQVLELECRFRLKKYLTGAEREIIAQKLNLSATQVKIWFQNRRYKSKRGD
B2: M1+T1 M1mut (dsDNA)
DNA 1: GGTGTCGTCTGTTGAAGTGTGAACATTAATGCCTAGATCTAAAGCGATAAAA
DNA 2: GGTTTTATCGCTTTAGATCTAGGCATTAATGTTCACACTTCAACAGACGACA

Experiments:
[1] = biological target: T1, MEF2 MADS plus MEF2 domain (amino acids 1-90) (Drosophila, UniProt P40791 1-90); assay: pull-down
T1 sequence (looked up): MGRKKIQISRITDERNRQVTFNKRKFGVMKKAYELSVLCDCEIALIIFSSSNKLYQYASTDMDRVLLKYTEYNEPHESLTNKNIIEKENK

MEF2 = biological target: T2, MEF2 (UniProt P40791 1-540); assay: competition
T2 sequence: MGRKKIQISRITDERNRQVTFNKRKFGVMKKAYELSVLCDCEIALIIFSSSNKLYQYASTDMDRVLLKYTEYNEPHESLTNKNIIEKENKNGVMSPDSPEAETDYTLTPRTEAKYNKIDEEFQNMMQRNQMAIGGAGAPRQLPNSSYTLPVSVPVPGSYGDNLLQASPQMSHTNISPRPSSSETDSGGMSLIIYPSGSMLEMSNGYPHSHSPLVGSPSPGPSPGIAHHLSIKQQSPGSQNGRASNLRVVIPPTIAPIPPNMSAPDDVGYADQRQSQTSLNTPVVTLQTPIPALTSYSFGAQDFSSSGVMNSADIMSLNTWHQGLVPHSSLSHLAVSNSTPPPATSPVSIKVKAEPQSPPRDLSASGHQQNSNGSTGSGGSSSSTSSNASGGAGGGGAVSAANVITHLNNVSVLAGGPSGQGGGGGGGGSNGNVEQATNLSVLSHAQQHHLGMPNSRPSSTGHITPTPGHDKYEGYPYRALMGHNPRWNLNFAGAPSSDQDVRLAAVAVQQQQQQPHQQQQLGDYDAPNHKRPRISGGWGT

| Binder | binding result [1] | binding result (MEF2) |
| --- | --- | --- |
| B1 | binds |  |
| B2 |  | no binding |
